Reference: article PMC6663034, “ACAP1 assembles into an unusual protein lattice for membrane deformation through multiple stages” (PLoS Computational Biology, 2019)

Biological target: the molecule itself
Experiment: cryo-EM structure; cryo-electron tomography and sub-tomogram averaging of the ACAP1^BAR-PH coat on non-tubulated (spherical) portions of liposomes; average of 233 coat particles; dimer model PDB 4CKG fitted into the density; dimers to tetramer on membrane

B1: ACAP1^BAR-PH (a.a. 1-377) (domain or fragment, UniProt Q15027 1-377, looked up)
chain: MTVKLDFEECLKDSPRFRASIELVEAEVSELETRLEKLLKLGTGLLESGRHYLAASRAFVVGICDLARLGPPEPMMAECLEKFTVSLNHKLDSHAELLDATQHTLQQQIQTLVKEGLRGFREARRDFWRGAESLEAALTHNAEVPRRRAQEAEEAGAALRTARAGYRGRALDYALQINVIEDKRKFDIMEFVLRLVEAQATHFQQGHEELSRLSQYRKELGAQLHQLVLNSAREKRDMEQRHVLLKQKELGGEEPEPSLREGPGGLVMEGHLFKRASNAFKTWSRRWFTIQSNQLVYQKKYKDPVTVVVDDLRLCTVKLCPDSERRFCFEVVSTSKSCLLQADSERLLQLWVSAVQSSIASAFSQARLDDSPRGPGQ
notes: ACAP1 (Arfgap with Coil-coil, Ankryin repeat, PH domain 1), BAR-PH tandem, a.a; 1-377; also called BAR-PH tandem of ACAP1; wild-type ACAP1^BAR-PH; source: E. coli BL21 (DE3), purified (glutathione-Sepharose 4B, GST removed with Precision Protease)
- stoichiometry N: 4
